Measured values published in US20210214454A1.

Columns and labels:
[1] = molecular target: human CD40 protein expressed on cells (human) (UniProt P25942); experiment: flow cytometry on CHO-S cells transiently expressing human CD40; AF647 anti-human IgG (H+L) secondary; GeoMean RL1-H
[2] = molecular target: cynomolgus CD40 protein expressed on CHO-S cells (cynomolgus) (UniProt G7PG38); experiment: flow cytometry on CHO-S cells transiently expressing cynomolgus CD40; AF647 anti-human IgG (H+L) secondary; GeoMean RL1-H
Sequence of cynomolgus CD40 protein expressed on CHO-S cells (cynomolgus) (G7PG38 entry or part of it): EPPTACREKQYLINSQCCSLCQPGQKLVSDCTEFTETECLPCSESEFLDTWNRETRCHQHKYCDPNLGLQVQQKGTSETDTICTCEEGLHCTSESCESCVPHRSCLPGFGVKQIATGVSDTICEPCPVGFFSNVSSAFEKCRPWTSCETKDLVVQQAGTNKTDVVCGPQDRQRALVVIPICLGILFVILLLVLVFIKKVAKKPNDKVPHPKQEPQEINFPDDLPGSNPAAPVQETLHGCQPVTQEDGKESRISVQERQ

Sequence of human CD40 protein expressed on cells (human) (P25942 21-277 limits assumed): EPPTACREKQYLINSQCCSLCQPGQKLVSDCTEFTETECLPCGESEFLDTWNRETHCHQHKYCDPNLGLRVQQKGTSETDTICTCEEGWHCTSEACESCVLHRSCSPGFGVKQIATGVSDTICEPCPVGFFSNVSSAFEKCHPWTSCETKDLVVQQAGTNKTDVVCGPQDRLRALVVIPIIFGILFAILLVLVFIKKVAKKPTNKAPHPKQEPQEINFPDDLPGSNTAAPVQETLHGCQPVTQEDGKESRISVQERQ

B1: ADC-1013 analogue (antibody, INN chains, looked up, IgG1, V domains shown)
VH: EVQLLESGGGLVQPGGSLRLSCAASGFTFSTYGMHWVRQAPGKGLEWLSYISGGSSYIFYADSVRGRFTISRDNSENALYLQMNSLRAEDTAVYYCARILRGGSGMDLWGQGTLVTVSS
VL: QSVLTQPPSASGTPGQRVTISCTGSSSNIGAGYNVYWYQQLPGTAPKLLIYGNINRPSGVPDRFSGSKSGTSASLAISGLRSEDEADYYCAAWDKSISGLVFGGGTKLTVL
EC50 (read off the curve) [1]: 0.01 µg/mL | EC50 (read off the curve) [2]: 0.01 µg/mL
